Reference: patent US20150010525A1, “Catalytic Tagging System to Study Macro-Molecular Interactions Using Engineered Ubiquitin Ligase and Ubiquitin-Like Proteins to Facilitate Substrate Identification” (THE REGENTS OF THE UNIVERSITY OF CALIFORNIA, priority 2012, published 2015)

B1: Acetyl-CoA acetyltransferase, mitochondrial: potential cIAP1 substrate (protein, UniProt P24752 34-427, looked up)
Acetyl-CoA acetyltransferase, …: VSKPTLKEVVIVSATRTPIGSFLGSLSLLPATKLGSIAIQGAIEKAGIPKEEVKEAYMGNVLQGGEGQAPTRQAVLGAGLPISTPCTTINKVCASGMKAIMMASQSLMCGHQDVMVAGGMESMSNVPYVMNRGSTPYGGVKLEDLIVKDGLTDVYNKIHMGSCAENTAKKLNIARNEQDAYAINSYTRSKAAWEAGKFGNEVIPVTVTVKGQPDVVVKEDEEYKRVDFSKVPKLKTVFQKENGTVTAANASTLNDGAAALVLMTADAAKRLNVTPLARIVAFADAAVEPIDFPIAPVYAASMVLKDVGLKKEDIAMWEVNEAFSLVVLANIKMLEIDPQKVNINGGAVSLGHPIGMSGARIVGHLTHALKQGEYGLASICNGGGGASAMLIQKL
B2: 3-hydroxyacyl-CoA dehydrogenase type-2: potential cIAP1 substrate (protein, UniProt Q99714 2-261, looked up)
3-hydroxyacyl-CoA …: AAACRSVKGLVAVITGGASGLGLATAERLVGQGASAVLLDLPNSGGEAQAKKLGNNCVFAPADVTSEKDVQTALALAKGKFGRVDVAVNCAGIAVASKTYNLKKGQTHTLEDFQRVLDVNLMGTFNVIRLVAGEMGQNEPDQGGQRGVIINTASVAAFEGQVGQAAYSASKGGIVGMTLPIARDLAPIGIRVMTIAPGLFGTPLLTSLPEKVCNFLASQVPFPSRLGDPAEYAHLVQAIIENPFLNGEVIRLDGAIRMQP
B3: Malate dehydrogenase, mitochondrial: potential cIAP1 substrate (protein, UniProt P40926 25-338, looked up)
Malate dehydrogenase, …: AKVAVLGASGGIGQPLSLLLKNSPLVSRLTLYDIAHTPGVAADLSHIETKAAVKGYLGPEQLPDCLKGCDVVVIPAGVPRKPGMTRDDLFNTNATIVATLTAACAQHCPEAMICVIANPVNSTIPITAEVFKKHGVYNPNKIFGVTTLDIVRANTFVAELKGLDPARVNVPVIGGHAGKTIIPLISQCTPKVDFPQDQLTALTGRIQEAGTEVVKAKAGAGSATLSMAYAGARFVFSLVDAMNGKEGVVECSFVKSQETECTYFSTPLLLGKKGIEKNLGIGKVSSFEEKMISDAIPELKASIKKGEDFVKTLK
B4: Medium-chain specific acyl-CoA dehydrogenase, mitochondrial: potential cIAP1 substrate (protein, UniProt P11310 26-421, looked up)
Medium-chain specific …: KANRQREPGLGFSFEFTEQQKEFQATARKFAREEIIPVAAEYDKTGEYPVPLIRRAWELGLMNTHIPENCGGLGLGTFDACLISEELAYGCTGVQTAIEGNSLGQMPIIIAGNDQQKKKYLGRMTEEPLMCAYCVTEPGAGSDVAGIKTKAEKKGDEYIINGQKMWITNGGKANWYFLLARSDPDPKAPANKAFTGFIVEADTPGIQIGRKELNMGQRCSDTRGIVFEDVKVPKENVLIGDGAGFKVAMGAFDKTRPVVAAGAVGLAQRALDEATKYALERKTFGKLLVEHQAISFMLAEMAMKVELARMSYQRAAWEVDSGRRNTYYASIAKAFAGDIANQLATDAVQILGGNGFNTEYPVEKLMRDAKIYQIYEGTSQIQRLIVAREHIDKYKN
B5: Isocitrate dehydrogenase [NADP], mitochondrial: potential cIAP1 substrate (protein, UniProt P48735 40-452, looked up)
Isocitrate dehydrogenase …: ADKRIKVAKPVVEMDGDEMTRIIWQFIKEKLILPHVDIQLKYFDLGLPNRDQTDDQVTIDSALATQKYSVAVKCATITPDEARVEEFKLKKMWKSPNGTIRNILGGTVFREPIICKNIPRLVPGWTKPITIGRHAHGDQYKATDFVADRAGTFKMVFTPKDGSGVKEWEVYNFPAGGVGMGMYNTDESISGFAHSCFQYAIQKKWPLYMSTKNTILKAYDGRFKDIFQEIFDKHYKTDFDKNKIWYEHRLIDDMVAQVLKSSGGFVWACKNYDGDVQSDILAQGFGSLGLMTSVLVCPDGKTIEAEAAHGTVTRHYREHQKGRPTSTNPIASIFAWTRGLEHRGKLDGNQDLIRFAQMLEKVCVETVESGAMTKDLAGCIHGLSNVKLNEHFLNTTDFLDTIKSNLDRALGRQ
B6: Elongation factor 1-alpha 1: potential cIAP1 substrate (protein, UniProt P68104 2-462, looked up)
Elongation factor 1-alpha 1: GKEKTHINIVVIGHVDSGKSTTTGHLIYKCGGIDKRTIEKFEKEAAEMGKGSFKYAWVLDKLKAERERGITIDISLWKFETSKYYVTIIDAPGHRDFIKNMITGTSQADCAVLIVAAGVGEFEAGISKNGQTREHALLAYTLGVKQLIVGVNKMDSTEPPYSQKRYEEIVKEVSTYIKKIGYNPDTVAFVPISGWNGDNMLEPSANMPWFKGWKVTRKDGNASGTTLLEALDCILPPTRPTDKPLRLPLQDVYKIGGIGTVPVGRVETGVLKPGMVVTFAPVNVTTEVKSVEMHHEALSEALPGDNVGFNVKNVSVKDVRRGNVAGDSKNDPPMEAAGFTAQVIILNHPGQISAGYAPVLDCHTAHIACKFAELKEKIDRRSGKKLEDGPKFLKSGDAAIVDMVPGKPMCVESFSDYPPLGRFAVRDMRQTVAVGVIKAVDKKAAGAGKVTKSAQKAQKAK
B7: Pre-mRNA-splicing factor SPF27: potential XIAP substrate (protein, UniProt O75934 2-225, looked up)
Pre-mRNA-splicing factor SPF27: AGTGLVAGEVVVDALPYFDQGYEAPGVREAAAALVEEETRRYRPTKNYLSYLTAPDYSAFETDIMRNEFERLAARQPIELLSMKRYELPAPSSGQKNDITAWQECVNNSMAQLEHQAVRIENLELMSQHGCNAWKVYNENLVHMIEHAQKELQKLRKHIQDLNWQRKNMQLTAGSKLREMESNWVSLVSKNYEIERTIVQLENEIYQIKQQHGEANKENIRQDF
B8: SMAC/Diablo homolog, mitochondrial: known IAP substrate (protein, UniProt Q9NR28 22-239, looked up)
Diablo IAP-binding …: LCVPVVANFKKRCFSELIRPWHKTVTIGFGVTLCAVPIAQKSEPHSLSSEALMRRAVSLVTDSTSTFLSQTTYALIEAITEYTKAVYTLTSLYRQYTSLLGKMNSEEEDEVWQVIIGARAEMTSKHQEYLKLETTWMTAVGLSEMAAEAAYQTGADQASITARNHIQLVKLQVEEVHQLSRKAETKLAEAQIEELRQKTQEEGEERAESEQEAYLRED

Legend:
cIAP1 = biological target: T1, cIAP1 (Homo sapiens, UniProt P61081+Q13490); assay: SILAC mass spectrometry screen for cIAP1 substrates with NEDDylator^cIAP1 in apoptotic Jurkat cell lysate; type: biochemical; conditions: Light lysate with NEDDylator^cIAP1, Heavy lysate with Ubc12
T1 construct: cIAP1(ΔR) (residues 1-555); GST (N, cleaved yes); made in house; host or cells: E. coli BL21 (DE3)
Procedure: Jurkat cells were grown in media containing either light or heavy isotopes of lysine and arginine and induced to undergo apoptosis with STS. Light cell extracts were incubated with the respective catalytic tagging system for each of the two IAPs and the heavy extracts labeled only with the wild-type NEDD8 E2, Ubc12. […] 100 mg ^13C6^15N2 L-Lys.2HCl and 86 mg ^13C6 L-Arg.HCl (Cambridge Isotope) were added to the same amount of medium to generate the “Heavy” medium. Jurkat cells were cultured separately in “Light” or “Heavy” medium for 7 days to allow for thorough isotope incorporation. For IAP substrate identification, 400 million cells were treated with 2 μM STS for 4 hours, harvested, lysed in M-PER mammalian protein extraction buffer (Thermo/Pierce) in the presence of protease inhibitors (100× ProteoBlock cocktail, Fermentas) and mixed with cell lysate prepared from 400 million untreated cells. […] Purified NEDDylated proteins were trypsinized and analyzed with tandem mass spectrometry (LC-MS/MS).
(§1) For SILAC experiments, Jurkat cells were cultured separately in “Light” (supplemented with regular Lys and Arg) or “Heavy” (supplemented with ^13C6^15N2 Lys and ^13C6 Arg) medium for 7 days to allow for thorough isotope incorporation. Apoptotic “Light” and “Heavy” cell extracts were prepared individually. The lysates were cleared by spinning and then diluted in 50 mM HEPES pH 7.4, 150 mM NaCl to 5 mg/ml and supplemented with 5 mM ATP, 10 mM MgCl2. Endogenous NEDD8 E1 is cell lysate was used to catalyze the reaction. HB-NEDD8 was added to both lysate at mass ratio 1:500; the catalytic tagging system was added to the “Light” lysate at mass ratio 1:1000. Equal molar of Ubc12 was added to the “Heavy” lysate. […] NEDDylated proteins were separated by one-dimensional SDS-PAGE, and trypsinized for LC-MS/MS analysis.
For liquid chromatography—Tandem mass spectrometry (LC-MS/MS) analysis, the tryptic peptides were first desalted and concentrated with a C18 Ziptip (Millipore). LC-MS/MS was carried out by reverse phase LC interfaced with a LTQ-Orbitrap (ThermoFisher Scientific) hybrid mass spectrometer. A nanoflow HPLC (NanoAcquity UPLC system, Waters Corporation) was equipped with a trap column (180 μm×20 mm, 5 μm SymmetryC18, from Waters) and an analytical column (100 μm×100 mm, 1.7 μm BEH130C18, from Waters). Peptides were eluted over a linear gradient from 2% solvent A (0.1% formic acid in water) to 35% solvent B (0.1% formic acid in acetonitrile) at 350 nL/min over 35 min. MS and MS/MS spectra were acquired in a data-dependent mode with MS spectra acquired in the Orbitrap at 30,000 resolving power and 6 CID MS/MS spectra acquired per MS in the LTQ linear ion trap. Dynamic exclusion was set at 90 seconds to prevent repeated MS/MS on the same precursor ion.
The identified peptides were searched against a random decoy protein database for evaluating the false positive rates. […] The decoy peptides were removed from the data. Protein IDs were assigned only when at least two unique peptides were identified from the same protein. For SILAC experiment, Light/Heavy ratios for the identified peptides were calculated, using ProteinProspector. The media Light/Heavy ratios of all the peptides identified for each protein were used to represent the Light/Heavy ratio of the protein.

XIAP = biological target: T2, XIAP (Homo sapiens, UniProt P61081+P98170); assay: SILAC mass spectrometry screen for XIAP substrates with NEDDylator^XIAP in apoptotic Jurkat cell lysate; type: biochemical; conditions: Heavy lysate with Ubc12
T2 construct: The N-terminus (residues 1-434) of XIAP was then fused via a flexible Gly-Gly-Ser-Gly linker to the NEDD8 E2, Ubc12; GST (N, cleaved yes); made in house; host or cells: E. coli BL21 (DE3)
Procedure: Jurkat cells were grown in media containing either light or heavy isotopes of lysine and arginine and induced to undergo apoptosis with STS. Light cell extracts were incubated with the respective catalytic tagging system for each of the two IAPs and the heavy extracts labeled only with the wild-type NEDD8 E2, Ubc12. 64 mg regular L-Lys and 83.6 mg L-Arg.HCl were added to 1 liter RPMI-1640 minus L-Lys and L-Arg (Thermo/Pierce), 10% fetal bovine serum (FBS) to generate “Light” medium. 100 mg ^13C6^15N2 L-Lys.2HCl and 86 mg ^13C6 L-Arg.HCl (Cambridge Isotope) were added to the same amount of medium to generate the “Heavy” medium. Jurkat cells were cultured separately in “Light” or “Heavy” medium for 7 days to allow for thorough isotope incorporation. For IAP substrate identification, 400 million cells were treated with 2 μM STS for 4 hours, harvested, lysed in M-PER mammalian protein extraction buffer (Thermo/Pierce) in the presence of protease inhibitors (100× ProteoBlock cocktail, Fermentas) and mixed with cell lysate prepared from 400 million untreated cells. The NEDDylated proteins were isolated under denaturing conditions via the HB-NEDD8 tag using a tandem affinity pull down procedure (Tagwerker et al., Mol Cell Proteomics 5:737-748 (2006)) (FIG. 11). Purified NEDDylated proteins were trypsinized and analyzed with tandem mass spectrometry (LC-MS/MS).
as §1
For liquid chromatography—Tandem mass spectrometry (LC-MS/MS) analysis, the tryptic peptides were first desalted and concentrated with a C18 Ziptip (Millipore). LC-MS/MS was carried out by reverse phase LC interfaced with a LTQ-Orbitrap (ThermoFisher Scientific) hybrid mass spectrometer. A nanoflow HPLC (NanoAcquity UPLC system, Waters Corporation) was equipped with a trap column (180 μm×20 mm, 5 μm SymmetryC18, from Waters) and an analytical column (100 μm×100 mm, 1.7 μm BEH130C18, from Waters). […]

T1 sequence (Q13490+P61081 fused): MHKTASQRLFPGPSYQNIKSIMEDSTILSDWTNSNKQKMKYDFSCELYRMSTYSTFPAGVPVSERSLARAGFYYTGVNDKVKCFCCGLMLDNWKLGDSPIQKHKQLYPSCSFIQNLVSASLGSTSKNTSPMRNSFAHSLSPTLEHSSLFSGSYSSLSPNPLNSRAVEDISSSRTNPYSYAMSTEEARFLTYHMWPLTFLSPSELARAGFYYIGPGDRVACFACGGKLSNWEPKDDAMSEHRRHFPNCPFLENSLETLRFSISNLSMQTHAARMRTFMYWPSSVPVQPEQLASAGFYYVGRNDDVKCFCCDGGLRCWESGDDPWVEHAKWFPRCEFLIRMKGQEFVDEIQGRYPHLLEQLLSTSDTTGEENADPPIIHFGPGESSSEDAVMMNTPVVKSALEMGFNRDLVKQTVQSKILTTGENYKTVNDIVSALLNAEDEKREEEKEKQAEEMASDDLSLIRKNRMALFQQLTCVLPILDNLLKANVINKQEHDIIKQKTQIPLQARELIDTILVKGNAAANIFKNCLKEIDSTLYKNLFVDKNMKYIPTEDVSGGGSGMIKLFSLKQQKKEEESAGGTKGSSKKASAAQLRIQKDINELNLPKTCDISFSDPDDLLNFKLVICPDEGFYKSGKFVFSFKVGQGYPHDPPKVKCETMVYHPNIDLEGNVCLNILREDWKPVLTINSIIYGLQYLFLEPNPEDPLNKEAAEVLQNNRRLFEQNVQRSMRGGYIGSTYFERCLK
T2 sequence (P98170+P61081 fused): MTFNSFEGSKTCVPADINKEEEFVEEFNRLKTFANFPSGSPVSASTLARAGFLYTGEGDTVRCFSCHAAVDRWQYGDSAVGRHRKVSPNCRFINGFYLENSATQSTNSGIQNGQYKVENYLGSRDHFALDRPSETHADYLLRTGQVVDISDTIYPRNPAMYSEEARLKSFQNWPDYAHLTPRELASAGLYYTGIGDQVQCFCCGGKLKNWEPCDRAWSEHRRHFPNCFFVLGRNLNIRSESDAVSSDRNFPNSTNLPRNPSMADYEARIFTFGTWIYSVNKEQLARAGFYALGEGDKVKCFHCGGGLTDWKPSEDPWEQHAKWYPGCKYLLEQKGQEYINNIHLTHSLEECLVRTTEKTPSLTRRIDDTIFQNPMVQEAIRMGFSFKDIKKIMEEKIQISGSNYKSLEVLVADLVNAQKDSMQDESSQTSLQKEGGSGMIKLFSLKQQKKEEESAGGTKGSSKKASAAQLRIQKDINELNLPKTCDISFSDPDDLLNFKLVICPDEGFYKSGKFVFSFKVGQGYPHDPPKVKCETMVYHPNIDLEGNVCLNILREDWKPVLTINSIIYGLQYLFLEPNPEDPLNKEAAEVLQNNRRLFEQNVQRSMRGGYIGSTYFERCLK

| Molecule | L/H (Light/Heavy ratio) (cIAP1) | L/H (Light/Heavy ratio) (XIAP) |
| --- | --- | --- |
| B1 | 5.67 |  |
| B2 | 4.1 |  |
| B3 | 4.35 |  |
| B4 | 6.17 |  |
| B5 | 6.51 |  |
| B6 | 4.4 |  |
| B7 |  | 4.35 |
| B8 | 53.4 | 7.39 |
